From ChEMBL document CHEMBL5226320, “A versatile toolbox for investigating biological processes based on quinone methide chemistry: From self-immolative linkers to self-immobilizing agents” (Bioorg Med Chem, 2021)

What was measured:
Conditions in all cases: Homo sapiens
[1] = substrate: O=c1ccc2nc3ccc(OP(=O)(O)O)cc3oc-2c1; assay: (§1) Binding affinity to ALP (unknown origin)
[2] = substrate: O=c1ccc2nc3ccc(OCc4ccc(OP(=O)(O)O)cc4)cc3oc-2c1; assay: as §1
[3] = substrate: O=c1ccc2nc3ccc(OP(=O)(O)O)cc3oc-2c1; assay: (§2) Binding affinity to ALP (unknown origin) assessed as catalytic constant
[4] = substrate: O=c1ccc2nc3ccc(OCc4ccc(OP(=O)(O)O)cc4)cc3oc-2c1; assay: as §2
[5] = substrate: O=c1ccc2nc3ccc(OP(=O)(O)O)cc3oc-2c1; assay: (§3) Binding affinity to ALP (unknown origin) assessed as Kcat/Km
[6] = substrate: O=c1ccc2nc3ccc(OCc4ccc(OP(=O)(O)O)cc4)cc3oc-2c1; assay: as §3

B1: Alkaline phosphatase, germ cell type (Homo sapiens), P10696 (protein)
chain: MQGPWVLLLLGLRLQLSLGIIPVEEENPDFWNRQAAEALGAAKKLQPAQTAAKNLIIFLGDGMGVSTVTAARILKGQKKDKLGPETFLAMDRFPYVALSKTYSVDKHVPDSGATATAYLCGVKGNFQTIGLSAAARFNQCNTTRGNEVISVMNRAKKAGKSVGVVTTTRVQHASPAGAYAHTVNRNWYSDADVPASARQEGCQDIATQLISNMDIDVILGGGRKYMFPMGTPDPEYPDDYSQGGTRLDGKNLVQEWLAKHQGARYVWNRTELLQASLDPSVTHLMGLFEPGDMKYEIHRDSTLDPSLMEMTEAALLLLSRNPRGFFLFVEGGRIDHGHHESRAYRALTETIMFDDAIERAGQLTSEEDTLSLVTADHSHVFSFGGYPLRGSSIFGLAPGKARDRKAYTVLLYGNGPGYVLKDGARPDVTESESGSPEYRQQSAVPLDGETHAGEDVAVFARGPQAHLVHGVQEQTFIAHVMAFAACLEPYTACDLAPRAGTTDAAHPGPSVVPALLPLLAGTLLLLGTATAP
B1 showed a Km [1] of 24.6 µM, a Km [2] of 15.3 µM and a kcat [3] of 0.16 s⁻¹. The kcat [4] was 0.26 s⁻¹, the kcat/Km [5] was 6.58 10^3/M/s and the kcat/Km [6] was 1.7 10^4/M/s.
